Results published in patent US20250215092A1 (ZHEJIANG NANOMAB TECHNOLOGY CENTER, published 2025).

B1: E008 VHH-IgG4 antibody (antibody, V domains shown)
VH: EVQVVESGGGLVQSGGSLTLSCTSSGLPLLDYAIGWFRQAPGKEREAVSAISISEGSTYYTDSVRGRFTISRDNNKNKVYLRMDNLKPEDTAVYYCAADKTDIGFWLLVGGAGGGEVRYEYWGQGTQVTVSS
notes: VHH fused to IgG4 (VHH-IgG4), expressed in ExpiCHO, protein A purified; not shown: human IgG4 constant part from the pCDNA3.4-IgG4 vector
B2: E007 VHH-IgG4 antibody (antibody, V domains shown, not shown: a dimerising Fc or GST)
VH: EVQLVESGGGLVQPGGSLRLSCEASGFSFSDHTMRWHRQAAGKNLELVAYITPAGDIIKYADSVQGRFTISRDNAKNMLYLQMDSLRPDDTAVYRCNALVSAAVRASDYWGQGTQVTVSS

Columns and labels:
[1] = target: T1, human EGFR.His antigen (Acro, Cat #EGR-H522a) (human, UniProt P00533 25-645); experiment: competition ELISA: EGFR his tag protein coated, antibody titrated together with Human EGF-mouse IgG2a Fc, bound EGF detected with HRP anti-mouse IgG, unit taken from the concentration axis (paragraph 62 says nM); OD450 falls from about 2.4 to a plateau of about 0.4 [table]
T1 construct: extracellular domain; Bought protein; also called EGFR his tag protein; full-length EGFR extracellular domain protein; not shown: His tag
Experimental: (§1) Briefly, EGFR his tag protein was diluted with PBS to 2 μg/mL, and 100 μL of the antigen was added to each well of an ELISA plate and coated overnight at 4° C. The next day, the plates were washed twice with PBST (containing 0.5% TWEEN-20), and then blocked with 3% BSA at 37° C. for 1.5 h, followed by two washes with PBST. […] VHH-IgG4 antibodies were diluted to 2000 nM and then serially diluted 4-fold for 8 gradients. […] After washing 3 times, HRP goat anti-mouse IgG (Goat anti-Mouse IgG) (H+L) antibody (Abcam, cat #ab205719) diluted at 1:3000 was added to each well, and the plate was incubated at 37° C. for 40 min. The plates were then washed 3 times with PBST, and 100 μL of TMB substrate was added to each well and allowed to react for 3-5 min. The reaction was stopped by adding 100 μL of 3N hydrochloric acid per well. After stopping the reaction, the optical density at 450/650 nm was measured using a Tecan microplate reader. The dose-response curve was plotted, and the IC50 was calculated using GraphPad Prism 8.0 software.

[2] = target: T1, human EGFR.His antigen (Acro, Cat …); experiment: competition ELISA: EGFR his tag protein coated, antibody titrated together with Human EGF-mouse IgG2a Fc, bound EGF detected with HRP anti-mouse IgG, unit taken from the concentration axis (paragraph 62 says nM); OD450 falls only from about 2.4 to about 2.0-2.2 [table]
Experimental: as §1

| Binder | IC50 [1] [µg/mL] | IC50 [2] [µg/mL] |
| --- | --- | --- |
| B1 | 0.056 |  |
| B2 |  | 0.152 |
